Publication PMC3818223, “A RhoC Biosensor Reveals Differences in the Activation Kinetics of RhoA and RhoC in Migrating Cells” (PLoS ONE, 2013)

Legend:
[1] = biological target: T1, RhoC Q63L, full length, as the C-terminal module of the RhoC FLARE.sc biosensor (UniProt P08134 1-193, Q63L); experiment: FRET or BRET; intramolecular FRET of the single-chain biosensor (binding domain-mCerulean-linker-mVenus-RhoC); fluorometry of cold, live HEK293T cell suspensions in PBS 48 h after transfection, excitation 433 nm, emission 450-600 nm, FRET/CFP ratio; conditions: partners not purified
T1 construct: RhoC GTPase, full length, with Q63L; On one chain with m1, as m2; also called constitutively active mutant; source: HEK293T, transfected (Lipofectamine2000), in live cell suspension; not shown: monomeric Venus, N-terminal, kept

[2] = biological target: T2, RhoC G14V, full length, as the C-terminal module of the RhoC FLARE.sc biosensor (UniProt P08134 1-193, G14V); experiment: as above; conditions: partners not purified
T2 construct: RhoC GTPase, full length, with G14V; On one chain with m1, as m2; also called constitutively active mutant; source: HEK293T, transfected (Lipofectamine2000), in live cell suspension; not shown: monomeric Venus, N-terminal, kept
T2 sequence (P08134 whole entry G14V): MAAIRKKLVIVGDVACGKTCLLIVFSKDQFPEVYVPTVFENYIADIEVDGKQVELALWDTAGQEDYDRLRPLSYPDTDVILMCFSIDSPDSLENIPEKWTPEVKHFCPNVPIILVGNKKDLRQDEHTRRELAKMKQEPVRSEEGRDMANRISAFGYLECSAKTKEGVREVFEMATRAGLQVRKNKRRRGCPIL

T1 sequence (P08134 whole entry Q63L, the tested form may be a part): as the sequence (P08134 whole entry G14V) above, with V14G, Q63L counted along it

B1: ROCK1 Rho binding domain (RBD, amino acids 905-1046), as the N-terminal module of the RhoC FLARE.sc biosensor (domain or fragment, UniProt Q13464 905-1046, looked up)
chain: ARGLLEEQYFELTQESKKAASRNRQEITDKDHTVSRLEEANSMLTKDIEILRRENEELTEKMKKAEEEYKLEKEEEISNLKAAFEKNINTERTLKTQAVNKLAEIMNRKDFKIDRKKANTQDLRKKEKENRKLQLELNQERE
notes: It is split from RhoC here so that the intramolecular pair can be written; Subcloned into pTriEX-HisMyc4 (Novagen), which may add His and Myc tags; source: HEK293T, transfected (Lipofectamine2000), in live cell suspension; not shown: monomeric Cerulean, C-terminal, kept
[1]
  increase in FRET ratio against the T19N biosensor: 41%
[2]
  increase in FRET ratio against the T19N biosensor: 41%
